B1: 4-H3_H5_VL-par (antibody, human IgG1, kappa)
heavy chain: not shown
light chain: AYDMTQTPPSLSASVGETVRIRCLASEDIASGISWYQQKPGKPPTLLIYGASNLESGVPPRFSGSGSGTDYTLTIGGVQAEDAATYYCLGGYSFSSNGLTFGAGTKVEIKTVAAPSVFIFPPSDEQLKSGTASVVCLLNNFYPREAKVQWKVDNALQSGNSQESVTEQDSKDSTYSLSSTLTLSKADYEKHKVYACEVTHQGLSSPVTKSFNRGEC
notes: also called 4-H3_H5 (hIgG1)
B2: 4-H3_H7_VL-par (antibody, human IgG1, kappa, V domains shown)
VH: QVQLVESGGGVVQPGRSLRLSCAASGIDLTSNAMNWVRQAPGKGLEWIGGIYGHDTSYYAAWAKGRFTISRDNSKNTVYLQMNSLRAEDTATYFCARGFIYFDIWGQGTLVTVSS
VL: AYDMTQTPPSLSASVGETVRIRCLASEDIASGISWYQQKPGKPPTLLIYGASNLESGVPPRFSGSGSGTDYTLTIGGVQAEDAATYYCLGGYSFSSNGLTFGAGTKVEIKT
notes: also called 4-H3_H7 (hIgG1)
B3: 1-A2_H1_VL-par (antibody, human IgG1, kappa, V domains shown)
VH: QVQLVESGGGVVQPGRSLRLSCAASGIDLTSNAMNWVRQAPGKGLEWVAGIYGHDTSYYAAWAKGRFTISRDNSKNTLYLQMNSLRAEDTAVYYCARGFIYFDIWGQGTLVTVSS
VL: AIEMTQTPPSLSASVGETVRIRCLASEDIYSGISWYQQKPGKPPTLLIYGASNLESGVPPRFSGSGSGTDYTLTIGGVQAEDAATYYCLGGHSHSTTDLTFGAGTKVEIKT
notes: also called 1-A2_H1 (hIgG1)
B4: 1-A2_H0_L0 (antibody, human IgG1, kappa, V domains shown)
VH: QVQLVESGGGVVQPGRSLRLSCAASGFTFSSNAMNWVRQAPGKGLEWVAGIYGHDTSYYAAWAKGRFTISRDNSKNTLYLQMNSLRAEDTAVYYCARGFIYFDIWGQGTLVTVSS
VL: DIQMTQSPSSLSASVGDRVTITCLASEDIYSGISWYQQKPGKAPKLLIYGASNLESGVPSRFSGSGSGTDFTLTISSLQPEDFATYYCLGGHSHSTTDLTFGGGTKVEIKT
notes: humanised, human IgG1 kappa
B5: 1-A2_H1_L0 (antibody, human IgG1, kappa, V domains shown)
VH: QVQLVESGGGVVQPGRSLRLSCAASGIDLTSNAMNWVRQAPGKGLEWVAGIYGHDTSYYAAWAKGRFTISRDNSKNTLYLQMNSLRAEDTAVYYCARGFIYFDIWGQGTLVTVSS
VL: DIQMTQSPSSLSASVGDRVTITCLASEDIYSGISWYQQKPGKAPKLLIYGASNLESGVPSRFSGSGSGTDFTLTISSLQPEDFATYYCLGGHSHSTTDLTFGGGTKVEIKT
notes: humanised, human IgG1 kappa
B6: 1-A2_H1_L1 (antibody, human IgG1, kappa, V domains shown)
VH: QVQLVESGGGVVQPGRSLRLSCAASGIDLTSNAMNWVRQAPGKGLEWVAGIYGHDTSYYAAWAKGRFTISRDNSKNTLYLQMNSLRAEDTAVYYCARGFIYFDIWGQGTLVTVSS
VL: DIQMTQSPSSLSASVGDRVTITCLASEDIYSGISWYQQKPGKAPKLLIYGASNLESGVPSRFSGSGSGTDYTLTISSLQPEDFATYYCLGGHSHSTTDLTFGGGTKVEIKT
notes: humanised, human IgG1 kappa
B7: 1-A2_H0_L1 (antibody, human IgG1, kappa, V domains shown)
VH: QVQLVESGGGVVQPGRSLRLSCAASGFTFSSNAMNWVRQAPGKGLEWVAGIYGHDTSYYAAWAKGRFTISRDNSKNTLYLQMNSLRAEDTAVYYCARGFIYFDIWGQGTLVTVSS
VL: DIQMTQSPSSLSASVGDRVTITCLASEDIYSGISWYQQKPGKAPKLLIYGASNLESGVPSRFSGSGSGTDYTLTISSLQPEDFATYYCLGGHSHSTTDLTFGGGTKVEIKT
notes: humanised, human IgG1 kappa
B8: 4-H3_H1_VL-par (antibody, human IgG1, kappa)
heavy chain: not shown
light chain: AYDMTQTPPSLSASVGETVRIRCLASEDIASGISWYQQKPGKPPTLLIYGASNLESGVPPRFSGSGSGTDYTLTIGGVQAEDAATYYCLGGYSFSSNGLTFGAGTKVEIKTVAAPSVFIFPPSDEQLKSGTASVVCLLNNFYPREAKVQWKVDNALQSGNSQESVTEQDSKDSTYSLSSTLTLSKADYEKHKVYACEVTHQGLSSPVTKSFNRGEC
notes: also called 4-H3_H1 (hIgG1)
B9: 4-H3_H2_VL-par (antibody, human IgG1, kappa)
heavy chain: not shown
light chain: AYDMTQTPPSLSASVGETVRIRCLASEDIASGISWYQQKPGKPPTLLIYGASNLESGVPPRFSGSGSGTDYTLTIGGVQAEDAATYYCLGGYSFSSNGLTFGAGTKVEIKTVAAPSVFIFPPSDEQLKSGTASVVCLLNNFYPREAKVQWKVDNALQSGNSQESVTEQDSKDSTYSLSSTLTLSKADYEKHKVYACEVTHQGLSSPVTKSFNRGEC
notes: also called 4-H3_H2 (hIgG1)
B10: 4-H3_H0_VL-par (antibody, human IgG1, kappa, V domains shown)
VH: QVQLVESGGGVVQPGRSLRLSCAASGFTFSSNAMNWVRQAPGKGLEWVAGIYGHDTSYYAAWAKGRFTISRDNSKNTLYLQMNSLRAEDTAVYYCARGFIYFDIWGQGTLVTVSS
VL: AYDMTQTPPSLSASVGETVRIRCLASEDIASGISWYQQKPGKPPTLLIYGASNLESGVPPRFSGSGSGTDYTLTIGGVQAEDAATYYCLGGYSFSSNGLTFGAGTKVEIKT
notes: also called 4-H3_H0 (hIgG1)
B11: 4-H3_H3_VL-par (antibody, human IgG1, kappa, V domains shown)
VH: QVQLVESGGGVVQPGRSLRLSCAASGIDLTSNAMNWVRQAPGKGLEWIGGIYGHDTSYYAAWAKGRFTISRDNSKNTVYLQMNSLRAEDTAVYYCARGFIYFDIWGQGTLVTVSS
VL: AYDMTQTPPSLSASVGETVRIRCLASEDIASGISWYQQKPGKPPTLLIYGASNLESGVPPRFSGSGSGTDYTLTIGGVQAEDAATYYCLGGYSFSSNGLTFGAGTKVEIKT
notes: also called 4-H3_H3 (hIgG1)
B12: 1-D5_VH-par_VL-par (antibody, human IgG1, kappa)
heavy chain: not shown
light chain: DIVMTQTPSSVSAAVGDTVTIQCQASQSINSGLAWYQQKPGQPPKRLIYKASTLASGVPSRFRGSGSGTDFTLTISDLECADAATYYCQSYHYISANGATFGGGTEVVVETVAAPSVFIFPPSDEQLKSGTASVVCLLNNFYPREAKVQWKVDNALQSGNSQESVTEQDSKDSTYSLSSTLTLSKADYEKHKVYACEVTHQGLSSPVTKSFNRGEC
notes: also called 1-D5_parental (hIgG1)
B13: 1-D5_VH-par_L1 (antibody, human IgG1, kappa, V domains shown)
VH: QQQLVESGGRLVTPGTPLTLTCAVSGFSLNNYIMGWVRQAPGKGLEYIGIISTGGSTYYASWAKGRFTISRTSTTMDLKMTSLTTEDTATYFCARGGSSAGAGFNIWGPGTLVTVSS
VL: DIQMTQSPSSLSASVGDRVTITCQASQSINSGLAWYQQKPGKAPKRLIYKASTLASGVPSRFSGSGSGTDFTLTISSLQPEDFATYYCQSYHYISANGATFGGGTKVEIKT
notes: also called 1-D5_L1 (hIgG1K)

As a reminder, the Kd is the free concentration of one partner at which half of the binding sites on the other are occupied at equilibrium, for simple one-to-one binding. The low end stands for tighter binding, the high end for weaker binding. The koff is the rate constant with which the complex falls apart. High values mean a short-lived complex, low ones a long-lived complex. One may read the kon as the rate constant with which the complex forms. Higher therefore signals fast association.

One assay deals with T1, human full-length VWF (human, UniProt P04275 764-2813). Nature of the assay: SPR, Biacore T200, antibody captured on Protein A, full-length VWF as analyte, single-cycle kinetics.
Protocol: (§1) Antibodies were captured on Protein A sensor chip. The system was purged using running buffer (10 mM HEPES pH 7.4, 300 mM NaCl, 3 mM EDTA, 0.05% P20) and a series S Protein A chip was docked in the Biacore T200. The surface was conditioned with 10 mM glycine-HCl pH 1.5 regeneration solution (3 injections). Each antibody was diluted to ˜0.8 μg/ml in running buffer to capture ˜350 RU on flow cells 2, 3 and 4 (flow cell 1 used as in-line reference cell). Single-cycle kinetic analysis of human full-length VWF binding to antibodies was performed using the following parameters:
Consider B1, for which the Kd came to 0.0161 nM, the koff came out at 4.34e-07 s⁻¹ and the kon came out at 26900 M⁻¹ s⁻¹.

For the molecule B2, the affinity, expressed as Kd, was 0.0104 nM; the dissociation rate constant (koff) amounted to 3.05e-07 s⁻¹; the kon was 29300 M⁻¹ s⁻¹.

On to B3, for which the Kd is 0.0238 nM, the koff is 9.49e-07 s⁻¹ and the kon came out at 39800 M⁻¹ s⁻¹.

Regarding B4, the Kd was 0.000231 nM, the koff turned out to be 2.74e-08 s⁻¹ and the kon turned out to be 119000 M⁻¹ s⁻¹.

For B5, the Kd was 0.0187 nM, the dissociation rate constant (koff) was 6.54e-07 s⁻¹ and the kon was 34900 M⁻¹ s⁻¹.

Molecule B6 returned a Kd of 0.00589 nM, an off-rate (koff) of 1.4e-07 s⁻¹ and an on-rate constant (kon) of 23800 M⁻¹ s⁻¹.

As to B7, binding was characterised by a dissociation constant (Kd) of 0.0432 nM, the koff is 2.73e-06 s⁻¹ and the kon was 63200 M⁻¹ s⁻¹.

The next assay addresses T1, human full-length VWF. Described as above. This is another data set of the same source.
Protocol: as §1
On to B8, for which binding was characterised by a dissociation constant (Kd) of 0.00664 nM, the koff worked out at 1.87e-07 s⁻¹ and the on-rate (kon) came to 28200 M⁻¹ s⁻¹.

On to B9, for which binding was put at a Kd of 0.0194 nM, the koff was 1.75e-06 s⁻¹ and the kon was 90000 M⁻¹ s⁻¹.

Molecule B10 returned a Kd of 0.0131 nM, an off-rate (koff) of 2.89e-07 s⁻¹ and a kon of 22100 M⁻¹ s⁻¹.

B11 yielded a Kd of 0.0294 nM, a koff of 1.59e-06 s⁻¹ and a kon of 54200 M⁻¹ s⁻¹.

Molecule B12 displayed an equilibrium dissociation constant (Kd) of 0.0223 nM.

B13 showed a dissociation constant (Kd) of 0.0824 nM, a koff of 7.91e-06 s⁻¹ and a kon of 96000 M⁻¹ s⁻¹.

For the origin of these results see patent US20240228660A1 (IP2IPO INNOVATIONS, published 2024).
